Results reported in patent US20060246095A1, “Multiepitope polypeptides for cancer immunotherapy” (HADASIT MEDICAL RESEARCH SERVICES & DEVELOPMENT LTD., priority 2003, published 2006).

Key:
[1] = system: T cell clone BR-B8 (DR4-restricted gp100 epitope 44-59); assay: Recognition assay for peptide presentation by DC (IFN-γ release ELISA), clone BR-B8; assay type: cell-based, human; conditions: transfected DC, BR-B8
Procedure: Dendritic cells were isolated from cytopheresis MNCs of melanoma patients with the HLA haplotypes HIA-A*0201 and HLA-DRβ1*0401. DC were generated from plastic adherent PBMCs cultured in RPMI with 10% human AB-serum, L-glutamine, penicillin-streptomycin, supplemented with GM-CSF 1000 IU/ml and IL-4 1000 IU/ml. By day 6, immature DC were harvested for electroporation.
2.5-3×10^6 DC were re-suspended in 100 μl nucleofector solution and added to 5 μg of DNA plasmid in 2-mm electrode gap cuvettes. Transfected DC were immediately plated with CM containing GM/IL4 or let mature using TNFα 100 ng/ml and PGE2 1000 ng/ml. GFP-transfected DCs were collected 16-24 hours later for FACS analysis.
pcDNA-MEP and pcDNA-gp100 were co-transfected to detect Class II antigen presentation as an internal control.
BR-B8 which recognizes the DR4-restricted gp100 epitope 44-59.
T cell clones were co-incubated with DC in flat 96-well plate for 24 hours. DC were plated immediately after their transfection or pulsing in 6 separated plates, in the presence of GM CSF and IL-4. 1×10^5 T cells were added to 1×10^5 pulsed or transfected DC. In the longitudinal study, T cell clones were added to the transfected/pulsed DC at the following time points: T0=immediately, +12=after 12 hours, 24, 36, 48 and 72 hours. Supernatants were collected after overnight incubation. Interferon gamma release assay was performed to evaluate T cell stimulation using the ELISA method, results are presented in pg/ml.
Lactacystin was added to DC at concentrations of 25 μM and 50 μM, 4 hours post transfection. DC were incubated with lactacystin for 70 minutes and then washed twice.
Responding T cells were added after washing the lactacystin and co-incubated. Supernatents were collected after 20 hours.
For recognition assay of DC epitope presentation, 1×10^5 cells from different T cell clones, that were grown from PBMCs of patients, and were restricted to particular melanoma antigen peptides, were co-incubated with 1×10^5 pulsed or transfected DC, in the presence of GM-CSF and IL-4. […]

[2] = system: T cell clones specific for different gp100 and MART-1 antigens; assay: Uptake of MEP protein by DC and presentation to T cell clones (IFN-γ secretion, FIG. 2); assay type: cell-based, human; conditions: DC incubated with protein 4 hours
Procedure: DC incubated with MEP-Mel protein were able to specifically stimulate T cell clones reactive to different MEP epitopes of gp100 and MART-1. T cell stimulation was estimated by the amount of IFN-γ secreted to the culture medium (pg/ml).
T cell clones tested: GP 100-209a and 209b specific for gp100 209-217 epitope, GP 100-280 specific for gp100 280-288 epitope, GP 100-154 specific for a gp100 epitope not present in MEP (used as control) and MART-1 specific for the epitope 27-35.
Immature DC were incubated with MEP protein for 4 hours. After DC maturation, dendritic cells were incubated in the presence of T cell clones specific for different gp100 and MART-1 antigens. T cell stimulation was estimated by measuring the interferon gamma (IFN-γ) secretion to the medium. […] A MART-1 specific T cell clone was also found to be stimulated.

B1: MEP-mel: melanoma multiepitope polypeptide, SEQ ID NO: 2 or 57; in Tables 2-9 delivered by transfecting DC with pcDNA3-MEP-Mel plasmid (protein)
chain: PGTMGSCRKSYYLEPGPVTVRKSYLIMDQVPFSVRKSYLYMDGTMSQVRKSYLAGIGILTVRKSYYLEPGPVTVALLIMDQVPFSVALLYMDGTMSQVALLLAGIGILTVSSLYLEPGPVTVAAYIMDQVPFSVSSLYMDGTMSQVAAYLAGIGILTV
- Interferon-γ secreted to the culture medium ([1]; Lactacystin 0): 188 pg/mL
- Interferon-γ secreted to the culture medium ([1]; Lactacystin 25 μM): 85 pg/mL
- Interferon-γ secreted to the culture medium ([1]; Lactacystin 50 μM): 16 pg/mL
- T cell stimulation (IFN-γ secretion) ([2]; MART-1 specific T cell clone): stimulated
- T cell stimulation (IFN-γ secretion) ([2]; clone recognizing gp100 epitope 280-288): also stimulated
- T cell stimulation (IFN-γ secretion) ([2]; clones 209a and 209b reactive to gp100 epitope 209-217): highly stimulated
